Experimental data taken from PMC7382501.

Molecular target: FasRLVL triple mutant (Leu106, Val163 and Leu185 to phenylalanine) (Mycobacterium tuberculosis) (UniProt O05858)
Assay: SEC

“FasRLVL triple mutant (Leu106, Val163 and Leu185 to phenylalanine) (from UniProt O05858 1-228) (natural protein)” gave a percent eluting as a monomer of under 50%, a percent eluting as the wild-type protein (dimer) of over 50% and a stoichiometry N of 2.
